Like-named read-outs stand apart in the source and are kept apart here.
Tests used:
[1] = target: T1, Biotinylated Recombinant Human PD-1/CD279-Fc Chimera (human, UniProt Q15116 25-167, biotinylated); experiment: ELISA: antibody coated on the plate (5 µg/ml), biotinylated human PD-1-Fc titrated (x-axis, Concentration (nM)), streptavidin-HRP/TMB, 450 nm
T1 construct: Bought (Biolegend #789406); also called recombinant biotinylated human PD-1

[2] = target: T2, recombinant biotinylated human FcRn (human, UniProt P55899 24-297; P61769 21-119, limits assumed, biotinylated); experiment: AlphaLISA competition at pH 6; competitor human IgG acceptor beads
T2 construct: Kit reagent; also called human neonatal Fc receptor
Procedure: (§1) The interaction of the unmodified and of conjugated anti-PD1 antibodies with the human neonatal Fc receptor (FcRn) at pH 6 was measured using the AlphaLISA® Human FcRn Binding Kit (AL3095C) from Perkin Elmer (Schwerzenbach, Switzerland).
(§2) After 90 min at 23° C. in the dark, AlphaLISA® signal was measured on an EnSpire plate reader (Excitation at 680 nm, Emission at 615 nm) from Perkin Elmer (Schwerzenbach, Switzerland).

[3] = target: T2, recombinant biotinylated human FcRn; experiment: AlphaLISA competition at pH 6: test antibody titrated against human IgG acceptor beads for biotinylated human FcRn on streptavidin donor beads; loss of signal
Procedure: as §1, §2

[4] = target: T3, recombinant Human Fc gamma RI/CD64 Protein (human, UniProt P12314 16-288); experiment: ELISA; antibody coated, His-tagged receptor titrated
T3 construct: also called FcγRI/(CD64); human Fc gamma receptor I
Procedure: (§3) The interaction of the unmodified and of conjugated antibodies with human Fc gamma receptors I (FcγRI/CD64), with human Fc gamma receptors IIa (FcγRIIa/CD32a), with inhibitory human Fc gamma receptors IIb (FcγRIIb/CD32b), and with human Fc gamma receptors III FcγRIIIa/CD16 were measured by ELISA.
(§4) Briefly, Corning high-binding half-area plates (Fisher Scientific, Reinach, Switzerland) were coated overnight at 4° C. with 25 ul of unmodified and of conjugated anti-PD1 antibodies at 2.5 μg/ml in PBS. Plates were then washed four times with 100 ul of PBS-0.02% Tween20. Plates surfaces were blocked with 25 ul of PBS-0.02% Tween20-1% BSA at 37° C. during 1h. Plates were then washed four times with 100 ul of PBS-0.02% Tween20. Then twenty-five microliters of either recombinant Human Fc gamma RI/CD64 Protein (R&D systems, 1257-FC-050, CF), recombinant Human Fc gamma RIIA/CD32a (H167) Protein (R&D systems, 9595-CD-050, CF), recombinant Human Fc gamma RIIB/CD32b Avi-tag Protein (R&D systems, AVI1875-050, CF), or recombinant Human Fc gamma RIIIA/CD16a Protein (R&D systems, 4325-FC-050; CF) were added in five-fold serial dilutions ranging from 1000 nM to 0.001 nM into PBS-0.02% Tween20-0.1% BSA and incubated at 37° C. during 2h. Plates were then washed four times with 100 ul of PBS-0.02% Tween20. Twenty-five microliters of a 1/500 HRP-anti-His antibody in PBS-0.02% Tween20-0.1% BSA (R&D systems, anti-HIS-HRP Ab, #MAB050H) were added to each well and plates were incubated at Room Temperature during 1h. Plates were then washed four times with 100 ul of PBS-0.02% Tween20. Fifty microliters of TMB substrate reagent (#CL07, Merck, Buchs, Switzerland) were added to each well and incubated at 37° C. during 5 min. After 5 min at 37° C., Horseradish peroxidase reaction was stopped by adding 50 ul/well of 0.5M H2SO₄ stop solution. ELISA signal was then measured at 450 nm on an EnSpire plate reader from Perkin Elmer (Schwerzenbach, Switzerland).

[5] = target: T4, recombinant Human Fc gamma RIIA/CD32a (H167) Protein (human, UniProt P12318 36-218, limits assumed); experiment: as above
T4 construct: also called FcγRIIa (CD32a)
T4 sequence (looked up): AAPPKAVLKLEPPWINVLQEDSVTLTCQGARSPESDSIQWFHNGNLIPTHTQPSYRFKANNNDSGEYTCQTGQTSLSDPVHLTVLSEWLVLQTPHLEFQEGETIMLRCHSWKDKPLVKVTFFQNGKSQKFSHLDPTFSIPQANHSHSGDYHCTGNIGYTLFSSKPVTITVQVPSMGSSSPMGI
Procedure: as §3, §4

[6] = target: T5, recombinant Human Fc gamma RIIIA/CD16a Protein (human, UniProt P08637 17-208, limits assumed); experiment: as above
T5 construct: also called FcγRIIIa (CD16)
Procedure: as §3, §4

[7] = target: T6, recombinant Human Fc gamma RIIB/CD32b Avi-tag Protein (human, UniProt P31994 46-217); experiment: as above
T6 construct: also called FcγRIIb (CD32b)
T6 sequence (looked up): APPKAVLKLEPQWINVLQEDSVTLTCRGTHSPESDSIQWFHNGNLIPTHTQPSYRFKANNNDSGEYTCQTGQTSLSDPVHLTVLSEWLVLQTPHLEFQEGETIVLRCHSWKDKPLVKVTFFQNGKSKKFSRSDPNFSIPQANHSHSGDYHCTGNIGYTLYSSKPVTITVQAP
Procedure: as §3, §4

[8] = target: T3, recombinant Human Fc gamma RI/CD64 …; experiment: ELISA: antibody coated (2.5 µg/ml), His-tagged recombinant human FcγRI/CD64 titrated (x-axis), anti-His-HRP/TMB, 450 nm
Procedure: as §3
as §4, with “Plates were then washed four times with 100 ul of PBS-0.02% Tween20. Twenty-five microliters of a 1/500 HRP-anti-His antibody in PBS-0.02% Tween20-0.1% BSA (R&D systems, anti-HIS-HRP Ab, #MAB050H) were added to each well and plates were incubated at Room Temperature during 1h. Plates were then washed four times with 100 ul of PBS-0.02% Tween20. Fifty microliters of TMB substrate reagent (#CL07, Merck, Buchs, Switzerland) were added to each well and incubated at 37° C. during 5 min. After 5 min at 37° C., Horseradish peroxidase reaction was stopped by adding 50 ul/well of 0.5M H2SO₄ stop solution.” left out

[9] = target: T2, recombinant biotinylated human FcRn; experiment: AlphaLISA competition at pH 6; competitor human IgG acceptor beads; remark: listed apart in the source
Procedure: as §1, §2

[10] = target: human PD-1 on Jurkat T cells (human, UniProt Q15116 25-288); experiment: cell-based or functional assay
[11] = target: T2, recombinant biotinylated human FcRn; experiment: AlphaLISA competition at pH 6: test antibody titrated against human IgG acceptor beads for biotinylated human FcRn on streptavidin donor beads; normalized signal

B1: LZM-009 (antibody, human IgG4 S228P, kappa)
heavy: not shown
light: EIVLTQSPATLSLSPGERATISCRASKGVSTSGYSYLHWYQQKPGQAPRLLIYLASYLESGVPARFSGSGSGTDFTLTISSLEPEDFATYYCQHSRELPLTFGTGTKVEIKRTVAAPSVFIFPPSDEQLKSGTASVVCLLNNFYPREAKVQWKVDNALQSGNSQESVTEQDSKDSTYSLSSTLTLSKADYEKHKVYACEVTHQGLSSPVTKSFNRGEC
notes: IgG4 anti-PD-1 antibody; also called CMP2000
[1]
  EC50 (read off the curve): ~0.03 nM
[2]
  Kd: 6 nM
[3]
  IC50 (read off the curve): ~5 nM
[4]
  Kd: 0.315 nM
[5]
  Kd: 1350 nM
[6]
  Kd: 1710 nM
[7]
  Kd: 2630 nM
[8]
  EC50 (read off the curve): ~0.2 nM
[9]
  Kd: 6 nM
[10]
  EC50 (read off the curve): ~2 nM
[11]
  IC50 (read off the curve): ~5 nM

Source: patent US20250188166A1 (BRIGHT PEAK THERAPEUTICS, published 2025)
